Results from patent US20200040081A1 (SURFACE ONCOLOGY, published 2020).

T1: human CD112R over-expressed on Jurkat cells (human, UniProt Q6DKI7 1-326)
T1 construct: whole, on cells; also called Jurkat-CD112R OE; PVRIG
T1 sequence (looked up): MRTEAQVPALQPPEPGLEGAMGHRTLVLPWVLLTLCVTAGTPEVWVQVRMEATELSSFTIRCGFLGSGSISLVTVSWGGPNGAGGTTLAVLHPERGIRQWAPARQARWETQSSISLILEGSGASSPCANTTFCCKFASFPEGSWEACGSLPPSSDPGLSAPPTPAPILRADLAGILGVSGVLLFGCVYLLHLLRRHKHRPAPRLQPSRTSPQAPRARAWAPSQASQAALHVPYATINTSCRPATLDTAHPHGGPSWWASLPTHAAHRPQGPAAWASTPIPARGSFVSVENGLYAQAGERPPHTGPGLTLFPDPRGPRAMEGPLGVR


Assays:
[1] = biological target: T1, human CD112R over-expressed on Jurkat …; experiment: flow cytometry on Jurkat cells over-expressing human CD112R, 0.63 ug/mL antibody
Description: The ability of anti-CD112R antibodies to bind to CD112R expressed on cells was evaluated. 1×10⁵ Jurkat cells (acute T cell leukemia cell line, ATCC # TIB-152) that were either wild type or engineered to over-express human CD112R (Jurkat-CD112R OE) were added to each well of a 96-well V bottom plate and stained with either anti-CD112R antibodies or an IgG1 isotype control (0.63 μg/mL) for 1 hour at 4° C. Cells were washed twice with PBS+2% FCS and resuspended with Alexa Fluor® 647 anti-human IgG Fc antibody (Biolegend, Cat #409320) diluted 1:100 in PBS+2% FCS and incubated at 4° C. for 30 minutes. Cells were subsequently washed twice and resuspended in PBS+2% FCS. Cellular data was acquired using a LSRFortessa X-20 (BD Biosciences) and analyzed with FlowJo software (Tree Star).
Results are depicted in FIG. 1. Quantitation of antibody binding to Jurkat-CD112R OE cells was assessed by the geometric mean fluorescent intensity (gMFI) of the Alexa Fluor® 647 signal.

[2] = biological target: T2, mouse CD112R over-expressed on 293T cells (mouse); experiment: flow cytometry on 293T cells over-expressing mouse CD112R
T2 construct: whole, on cells; also called 293T.mCD112R; 293T-mouse CD112R
Description: The ability of anti-CD112R antibodies to bind to mouse CD112R was evaluated on cells overexpressing mouse CD112R. 0.8×10⁵ 293T cells (ATCC CRL-3216) that were engineered to overexpress mouse CD112R (293T.mCD112R) were added to each well of a 96-well V bottom plate and stained with either anti-CD112R antibodies or an IgG1 isotype control at a starting concentration of […], with 3-fold serial dilutions for 30 minutes at 4° C. Cells were washed twice with PBS+2% FCS and resuspended with Alexa Fluor® 647 anti-human IgG Fc antibody (Biolegend, Cat #409320) diluted 1:100 in PBS+2% FCS and incubated at 4° C. for 20 minutes. Cells were subsequently washed twice and resuspended in PBS+2% FCS. Cellular data was acquired using a LSRFortessa X-20 (BD Biosciences) and analyzed with FlowJo software (Tree Star).
Results are depicted in FIG. 17 and Table 11. Quantitation of antibody binding to 293T.mCD112R cells was assessed by the geometric mean fluorescent intensity (gMFI) of the Alexa Fluor® 647 signal.

| Binder | Jurkat-CD112R over-expressed (OE) gMFI (fold increase over isotype) [1] [fold] | 293T-mouse CD112R gMFI (fold increase over isotype) [2] [fold] |
| --- | --- | --- |
| Antibody 10 (antibody, V domains shown, Tested as IgG detected with anti-human IgG Fc, compared with an IgG1 isotype control; also called antibody clone number 10; clone 10) VH: EVQLVESGGGLVQPGRSLRLSCAASGFTFDDYAVHWVRQAPGKGLEWVSGISWSSGLIGYADSVKGRFTISRDNAKNSLYLQMNSLRAEDTAVYYCAKGPPTYQDYFDLWGRGTLVTVSS VL: EIVLTQSPATLSLSPGERATLSCRASQSVSRYLAWYQQKPGQAPRLLIYDASNRATGIPARFSGSGSGTDFTLTISSLEPEDFAVYYCQQVSFFPPITFGGGTKVEIK | 55.7 |  |
| Antibody 2 (antibody, V domains shown, Tested as IgG detected with anti-human IgG Fc, compared with an IgG1 isotype control; also called antibody clone number 2; clone 2) VH: EVQLVESGGGLVKPGGSLRLSCAASGFTFSEYTMNWVRQAPGKGLEWVSAIVGSGDSTYYADSVKGRFTISRDNSKNTLYLQMNSLRAEDTAVYYCAKDYSSGDWIDYGMDVWGQGTTVTVSS VL: DIQMTQSPSSLSASVGDRVTITCQASQDISNYLNWYQQKPGKAPKLLIYDASNLATGVPSRFSGSGSGTDFTFTISSLQPEDIATYYCQQFDLLPPTFGGGTKVEIK | 63.9 |  |
| Antibody 5 (antibody, V domains shown, Tested as IgG detected with anti-human IgG Fc, compared with an IgG1 isotype control; also called antibody clone number 5; clone 5) VH: EVQLLESGGGLVQPGGSLRLSCAASGFTFSDYAMIWVRQAPGKGLEWVSAISGGGESTYYADSVKGRFTISRDNSKNTLYLQMNSLRAEDTAVYYCAKDYSSGDWIDYGMDVWGQGTTVTVSS VL: DIQMTQSPSSLSASVGDRVTITCQASQDISNYLNWYQQKPGKAPKLLIYDASNLATGVPSRFSGSGSGTDFTFTISSLQPEDIATYYCQQFDLLPPTFGGGTKVEIK | 63.3 |  |
| Antibody 15 (antibody, V domains shown, Tested as IgG detected with anti-human IgG Fc, compared with an IgG1 isotype control; also called antibody clone number 15; clone 15) VH: EVQLVESGGGLVQPGRSLRLSCTASGFTFGDVAMSWFRQAPGKGLEWVGYIGSKAYGGETEYTASVKGRFTISRDGSKSIAYLQMNSLKTEDTAVYYCARAGHSYGSIASNWFDPWGQGTLVTVSS VL: DIQMTQSPSSLSASVGDRVTITCRASQSISSYLNWYQQKPGKAPKLLIYGASSLQSGVPSRFSGSGSGTDFTLTISSLQPEDFATYYCQQGFYTPWTFGGGTKVEIK | 53.2 |  |
| Antibody 32 (antibody, V domains shown, Tested as IgG detected with anti-human IgG Fc, compared with an IgG1 isotype control; Parent of antibodies 33, 34, 35 and 36; also called antibody clone number 32; parent clone 32) VH: QVQLVQSGAEVKKPGSSVKVSCKASGGTFSSYAISWVRQAPGQGLEWMGGIIPISGTANYAQKFQGRVTITADESTSTAYMELSSLRSEDTAVYYCARDTGRGYTRHFWFDPWGQGTLVTVSS VL: DIQMTQSPSSLSASVGDRVTITCRASQSISSYLNWYQQKPGKAPKLLIYAASSLQSGVPSRFSGSGSGTDFTLTISSLQPEDFATYYCQQSDILYTFGGGTKVEIK | 27.9 | 14.9 |
| Antibody 46 (antibody, V domains shown, also called antibody clone number 46; clone 46) VH: EVQLVESGGGLVQPGRSLRLSCTASGFTFGDYAMSWFRQAPGKGLEWVGFIGSKAYGGTTEYTASVKGRFTISRDGSKSIAYLQMNSLKTEDTAVYYCARGPRRYTYGMDVWGQGTTVTVSS VL: DIQMTQSPSSLSASVGDRVTITCRASQSISSYLNWYQQKPGKAPKLLIYAASSLQSGVPSRFSGSGSGTDFTLTISSLQPEDFATYYCQQSSTPLTFGGGTKVEIK | 23.8 | 74.8 |

More lines, now with the values ahead:

| Jurkat-CD112R over-expressed (OE) gMFI (fold increase over isotype) [1] [fold] | 293T-mouse CD112R gMFI (fold increase over isotype) [2] [fold] | Binder |
| --- | --- | --- |
| 51.7 |  | Antibody 38 (antibody, V domains shown, Tested as IgG detected with anti-human IgG Fc, compared with an IgG1 isotype control; also called antibody clone number 38; clone 38) VH: EVQLLESGGGLVQPGGSLRLSCAASGFTFSGHLMSWVRQAPGKGLEWVSAISGSAGETYYADSVKGRFTISRDNSKNTLYLQMNSLRAEDTAVYYCARDAYYDDWSGWADWYFDLWGRGTLVTVSS VL: EIVLTQSPATLSLSPGERATLSCRASQSVSRYLAWYQQKPGQAPRLLIYDASNRATGIPARFSGSGSGTDFTLTISSLEPEDFAVYYCQQVSLLPPTFGGGTKVEIK |
| 46.9 |  | Antibody 44 (antibody, V domains shown, Tested as IgG detected with anti-human IgG Fc, compared with an IgG1 isotype control; also called antibody clone number 44; clone 44) VH: QVQLVQSGAEVKKPGSSVKVSCKASGGTFDNYYISWVRQAPGQGLEWMGGIFPIFGTANYAQKFQGRVTITADESTSTAYMELSSLRSEDTAVYYCAREVGHYSGSPYYMDVWGKGTTVTVSS VL: DIQMTQSPSTLSASVGDRVTITCRASQSINSWLAWYQQKPGKAPKLLISDASSLESGVPSRFSGSGSGTEFTLTISSLQPDDFATYYCQQVGPYLTFGGGTKVEIK |
| 33.8 | 72.2 | Antibody 34 (antibody, V domains shown, Tested as IgG detected with anti-human IgG Fc, compared with an IgG1 isotype control; also called antibody clone number 34; clone 34) VH: QVQLVQSGAEVKKPGSSVKVSCKASGGTFSSAAISWVRQAPGQGLEWMGGIFPISGHANYAQKFQGRVTITADESTSTAYMELSSLRSEDTAVYYCARDTGRGYTRHFWFDPWGQGTLVTVSS VL: DIQMTQSPSSLSASVGDRVTITCRASQSISSYLNWYQQKPGKAPKLLIYAASSLQSGVPSRFSGSGSGTDFTLTISSLQPEDFATYYCQQSDILYTFGGGTKVEIK |
| 32.1 | 55.6 | Antibody 35 (antibody, V domains shown, Tested as IgG detected with anti-human IgG Fc, compared with an IgG1 isotype control; also called antibody clone number 35; clone 35) VH: QVQLVQSGAEVKKPGSSVKVSCKASGGTFSSAAISWVRQAPGQGLEWMGNIIPIVGIANYAQKFQGRVTITADESTSTAYMELSSLRSEDTAVYYCARDTGRGYTRHFWFDPWGQGTLVTVSS VL: DIQMTQSPSSLSASVGDRVTITCRASQSISSYLNWYQQKPGKAPKLLIYAASSLQSGVPSRFSGSGSGTDFTLTISSLQPEDFATYYCQQSDILYTFGGGTKVEIK |
| 31 | 76.3 | Antibody 36 (antibody, V domains shown, Tested as IgG detected with anti-human IgG Fc, compared with an IgG1 isotype control; also called antibody clone number 36; clone 36) VH: QVQLVQSGAEVKKPGSSVKVSCKASGGTFATYAISWVRQAPGQGLEWMGGIFPLSGTANYAQKFQGRVTITADESTSTAYMELSSLRSEDTAVYYCARDTGRGYTRHFWFDPWGQGTLVTVSS VL: DIQMTQSPSSLSASVGDRVTITCRASQSISSYLNWYQQKPGKAPKLLIYAASSLQSGVPSRFSGSGSGTDFTLTISSLQPEDFATYYCQQSDILYTFGGGTKVEIK |
| 34.2 | 73.3 | Antibody 33 (antibody, V domains shown, Tested as IgG detected with anti-human IgG Fc, compared with an IgG1 isotype control; also called antibody clone number 33; clone 33) VH: QVQLVQSGAEVKKPGSSVKVSCKASGGTFGNYAISWVRQAPGQGLEWMGGIIPIPGIANYAQKFQGRVTITADESTSTAYMELSSLRSEDTAVYYCARDTGRGYTRHFWFDPWGQGTLVTVSS VL: DIQMTQSPSSLSASVGDRVTITCRASQSISSYLNWYQQKPGKAPKLLIYAASSLQSGVPSRFSGSGSGTDFTLTISSLQPEDFATYYCQQSDILYTFGGGTKVEIK |
| 37.3 | 79.4 | Antibody 58 (antibody, V domains shown, Tested as IgG detected with anti-human IgG Fc, compared with an IgG1 isotype control; also called antibody clone number 58; clone 58) VH: EVQLVESGGGLVQPGRSLRLSCTASGFTFGDYAMSWFRQAPGKGLEWVGFIGSKFYGGETEYTASVKGRFTISRDGSKSIAYLQMNSLKTEDTAVYYCARGPRRYTYGMDVWGQGTTVTVSS VL: DIQMTQSPSSLSASVGDRVTITCRASQSISSYLNWYQQKPGKAPKLLIYAASSLQSGVPSRFSGSGSGTDFTLTISSLQPEDFATYYCQQSSTPLTFGGGTKVEIK |
